US20250195556A1, “COMPOSITIONS, KITS, AND METHODS TO INDUCE ACQUIRED CYTORESISTANCE USING STRESS PROTEIN INDUCERS” (FRED HUTCHINSON CANCER RESEARCH CENTER, priority 2014, published 2025)

Experiments:
[1] = read-out: affinity to heme (KD); cited from earlier work
HO-1 [2] = experiment: Cardiac HO-1 mRNA and protein after IV N-Mgb, SnPP or both; assay type: in vivo, mice; settings: for Cardiac mRNA: HO-1: control 0.07
Description: (§1) Thirty-two mice were divided into 4 equal groups: (1) control mice; (2) mice treated with 1 mg of N-Mgb injection (as a bolus through the tail vein); (3) mice treated with […] of SnPP (via tail vein); and (4) mice treated with combined N-Mgb 1 SnPP. After either 4 hours (n=16) or 18 hours (n=16), the mice were deeply anesthetized with pentobarbital (50 mg/kg), the abdomen was opened through a midline abdominal incision, and the kidneys were removed. To determine potential effects on extrarenal organs, a liver lobe and the heart were also removed. The tissues were iced and then extracted for protein and RNA (RNeasy Plus Mini; Qiagen, Valencia, California) and subjected to enzyme linked immunosorbent assay (ELISA) and reverse transcriptase polymerase chain reaction (RT-PCR) for HO-1, haptoglobin, and IL-10 protein and messenger RNAs (mRNAs). Zager et al. J Am Soc Nephrol 2014; 25:998-1012; Zager et al. Am J Physiol 2012; 303: F139-48. As an assessment of renal function, control mice and the 18 hour after N-Mgb+SnPP-treated mice had blood urea nitrogen (BUN) and plasma creatinine levels measured. Additionally, transverse 10% formalin fixed kidney sections ([…]) were cut and stained with hematoxylin and eosin (H&E) and periodic acid Schiff (PAS) to further assess potential injury.

HK-2 cells = experiment: Myoglobin toxicity in HK-2 cells, MTT assay; assay type: cell-based; settings: equimolar Na nitrite, 10 mg/ml, 18 hr
Description: Example 3. […] HK-2 cells (a proximal tubule cell line derived from normal human kidney) were incubated in keratinocyte serum free medium either under normal (control) conditions or in the presence of 10 mg/mL horse skeletal muscle myoglobin or nitrited myoglobin (produced by equimolar Na nitrite addition to 10 mg/ml myoglobin). After 18 hr incubations, the severity of cell injury (% cell death) was assessed by MTT assay. Myoglobin induced 40% cell death (40% decrease in MTT cell uptake), compared to control incubated cells. Nitrite binding to myoglobin reduced cell death by 75%. Thus, nitrite binding is able to reduce myoglobin's cytotoxic effects.

HO-1 [3] = experiment: Renal cortical HO-1 mRNA and protein after IV N-Mgb, SnPP or both; assay type: in vivo, mice
Description: (§2) Cytoresistance-inducing reagents. […] (#Mb0360; Sigma) was used as the primary cytoresistance-inducing agent. However, because myoglobin (Mgb) has an inherent nephrotoxic potential (particularly under conditions of volume depletion and aciduria), two approaches were used to mitigate Mgb's potential adverse effects. First, the Mgb was converted into a nitrited form by the addition of equimolar amount of sodium (Na) nitrite. In this regard, nitrite is an ambidentate molecule that directly binds 1:1 to myoglobin Fe either via its oxygen or nitrogen component. Cotton et al. Advanced inorganic chemistry. Hobocken, NJ: Wiley-Interscience, 1999:1355; Silaghi-Dumitrescu et al. Nitric Oxide 2014; 42 C: 32-9. […] Rassaf et al. Circ Res 2014; 114:1601-10; Totzeck et al. Circulation 2012; 126:325-34 [J Clin Invest 1992; 89:989-95]; Totzeck et al. PLOS One 2014; 22: e105951; Hendgen-Cotta et al. Proc Natl Acad Sci USA 2008; 105:10256-61.
as §1

[4] = Serum creatinine after 2 hr subcutaneous infusion of nitrited myoglobin + SnPP; assay type: in vivo, mice; settings: 2 hr subcutaneous infusion of 1, 3, 6, 12, or 25 mg/Kg + 1 μmole SnPP; 18 hrs later
Description: Mice were subjected to a 2 hr subcutaneous infusion of 1, 3, 6, 12, or 25 mg/Kg of nitrited myoglobin (holding SnPP at a constant dose of 1 μmole). Eighteen hrs later, potential renal injury was assessed by measuring serum creatinine concentrations.
An obvious concern by applying this prophylactic strategy to patients is potential renal and/or extrarenal toxicities. […] Furthermore, it was previously documented in a cell culture system that nitrite addition markedly reduces myoglobin's cytotoxic effects by 75% (unpublished data, 2014). To assess the potential in vivo margin of safety for N-Mgb+SnPP (see Supplemental FIGs.), the maximal amount of N-Mgb that could be given to mice before nephrotoxicity was observed was tested. Up to 25 times the employed N-Mgb dose (with a constant SnPP dose) could be administered (over 2 hours) without induction of nephrotoxicity (normal BUN and creatinine, 18 hours later).

IL-10 [5] = experiment: Renal cortical IL-10 mRNA and protein after IV N-Mgb, SnPP or both; assay type: in vivo, mice; settings: for Kidney protein: IL-10: control 304
Description: as §2, §1

haptoglobin [6] = experiment: Renal cortical haptoglobin mRNA and protein after IV N-Mgb, SnPP or both; assay type: in vivo, mice
Description: as §2, §1

IL-10 [7] = experiment: Cardiac IL-10 mRNA and protein after IV N-Mgb, SnPP or both; assay type: in vivo, mice; settings: for Cardiac mRNA: IL-10: control 0.36
Description: as §1

haptoglobin [8] = experiment: Liver haptoglobin mRNA and protein after IV N-Mgb, SnPP or both; assay type: in vivo, mice; design: Liver protein: Haptoglobin: unit not given beside the values; settings: for Liver mRNA: Haptoglobin: control 0.5; for Liver protein: Haptoglobin: control 115.3
Description: as §1

HO-1 [9] = experiment: Liver HO-1 mRNA and protein after IV N-Mgb, SnPP or both; assay type: in vivo, mice; settings: for Liver mRNA: HO-1: control 1.1; for Liver protein: HO-1 protein: control 10.2
Description: as §1

IL-10 [10] = experiment: Liver IL-10 mRNA and protein after IV N-Mgb, SnPP or both; assay type: in vivo, mice; settings: for Liver mRNA: IL-10: control 0.06; for Liver protein: IL-10: control 314
Description: as §1

Male CD-1 mice = experiment: Glycerol model of rhabdomyolysis-induced AKI (Example 4); assay type: in vivo; settings: IV pretreatment 18 hours before glycerol; 18 hours after glycerol
Description: Assessments of cytoresistance. Glycerol model of rhabdomyolysis-induced AKI. Twenty mice were divided into 4 equal groups (controls, mice treated with N-Mgb, SnPP, and mice treated with N-Mgb+SnPP tail vein injections) as described previously. 18 hours later, the mice were briefly anesthetized with isoflurane and immediately injected with 9 mL/kg of 50% glycerol, administered in equally divided doses into each hind limb. At 18 hours after glycerol injection, the mice were anesthetized with pentobarbital, the abdomen was opened, a blood sample for BUN and creatinine assessments was obtained from the vena cava, and the kidneys were resected. The control post-glycerol group and the N-Mgb+SnPP-pretreated glycerol group had kidney sections stained with H&E.
Calculations and statistics. All values are given as the mean […] standard error of the mean. Statistical comparisons were made by unpaired Student's t test. If multiple comparisons were made, the Bonferroni correction was applied. The severity of renal histologic injury in the glycerol AKI model was graded on a […] (least to most severe tubular necrosis and cast formation observed). The histologic results were compared by Wilcoxon rank sum test. Statistical significance was taken as a P value of <0.05.

haptoglobin [11] = experiment: Cardiac haptoglobin mRNA and protein after IV N-Mgb, SnPP or both; assay type: in vivo, mice; settings: for Cardiac mRNA: Haptoglobin: control 0.31; for Cardiac protein: Haptoglobin: control 15.6
Description: as §1

B1: Hemopexin: 60 kDa plasma protein that sequesters free heme; protective stress protein (background) (protein, listed as Homo sapiens)
chain: MARVLGAPVALGLWSLCWSLAIATPLPPTSAHGNVAEGETKPDPDVTERCSDGWSFDATTLDDNGTMLFFKGEFVWKSHKWDRELISERWKNFPSPVDAAFRQGHNSVFLIKGDKVWVYPPEKKEKGYPKLLQDEFPGIPSPLDAAVECHRGECQAEGVLFFQGDREWFWDLATGTMKERSWPAVGNCSSALRWLGRYYCFQGNQFLRFDPVRGEVPPRYPRDVRDYFMPCPGRGHGHRNGTGHGNSTHHGPEYMRCSPHLVLSALTSDNHGATYAFSGTHYWRLDTSRDGWHSWPIAHQWPQGPSAVDAAFSWEEKLYLVQGTQVYVFLTKGGYTLVSGYPKRLEKEVGTPHGIILDSVDAAFICPGSSRLHIMAGRRLWWLDLKSGAQATWTELPWPHEKVDGALCMEKSLGPNSCSANGPGLYLIHGPNLYCYSDVEKLNAAKALPQPQNVTSLLGCTH
- Kd [1]: < 1 pM

B2: N-Mgb: horse skeletal muscle myoglobin converted into a nitrited form by addition of equimolar sodium nitrite (protein, UniProt P68082 2-154, looked up)
Myoglobin: GLSDGEWQQVLNVWGKVEADIAGHGQEVLIRLFTGHPETLEKFDKFKHLKTEAEMKASEDLKKHGTVVLTALGGILKKKGHHEAELKPLAQSHATKHKIPIKYLEFISDAIIHVLHSKHPGDFGADAQGAMTKALELFRNDIAAKYKELGFQG
modifications: nitrited with sodium nitrite
- Cardiac mRNA: HO-1 (HO-1 [2]; 4 h after Rx): 0.09 ± 0.01
- Cardiac protein: HO-1 (HO-1 [2]; 4 h after Rx, control 1.50): 1.64 ± 0.19
- Cardiac mRNA: HO-1 (HO-1 [2]; 18 h after Rx): 0.08 ± 0.01
- Reduction of myoglobin-induced cell death by nitrite binding (HK-2 cells): 75%
- Kidney mRNA: HO-1 (HO-1 [3]; 4 h after Rx, control 0.61): 3.38 ± 0.38
- Kidney HO-1 protein (HO-1 [3]; 4 h after Rx, control 13.3): 36.1 ± 2.9
- Kidney mRNA cortex: HO-1 (HO-1 [3]; 18 h after Rx, control 0.61): 0.58 ± 0.18
- Kidney protein: HO-1 (HO-1 [3]; 18 h after Rx, control 13.3): 30 ± 6
- Serum creatinine concentrations [4]: No significant increase
- Kidney mRNA: IL-10 (IL-10 [5]; 4 h after Rx, control 0.56): 1.45 ± 0.6
- Kidney protein: IL-10 (IL-10 [5]; 4 h after Rx): 265 ± 54
- Kidney mRNA cortex: IL-10 (IL-10 [5]; 18 h after Rx, control 0.56): 0.43 ± 0.10
- Kidney protein: IL-10 (IL-10 [5]; 18 h after Rx): 292 ± 54
- Kidney mRNA: Haptoglobin (haptoglobin [6]; 4 h after Rx, control 0.20): 1.94 ± 0.31
- Kidney protein: Haptoglobin (haptoglobin [6]; 4 h after Rx, control 7.9): 17.6 ± 1^
- Kidney mRNA cortex: Haptoglobin (haptoglobin [6]; 18 h after Rx, control 0.20): 0.24 ± 0.04
- Kidney protein: Haptoglobin (haptoglobin [6]; 18 h after Rx, control 10.3): 183.8 ± 20.4
- Cardiac mRNA: IL-10 (IL-10 [7]; 4 h after Rx): 0.86 ± 0.11
- Cardiac protein: IL-10 (IL-10 [7]; 4 h after Rx, control 8.1): 21 ± 12
- Cardiac mRNA: IL-10 (IL-10 [7]; 18 h after Rx): 0.67 ± 0.10
- Cardiac protein: IL-10 (IL-10 [7]; 18 h after Rx, control 8): 14.5 ± 10^
- Liver mRNA: Haptoglobin (haptoglobin [8]; 4 h after Rx): 0.98 ± 0.1
- Liver protein: Haptoglobin (haptoglobin [8]; 4 h after Rx): 359.5 ± 39.6
- Liver mRNA: Haptoglobin (haptoglobin [8]; 18 h after Rx): 0.91 ± 0.07
- Liver protein: Haptoglobin (haptoglobin [8]; 18 h after Rx): 358.8 ± 32.8
- Liver mRNA: HO-1 (HO-1 [9]; 4 h after Rx): 1.83 ± 0.33
- Liver protein: HO-1 protein (HO-1 [9]; 4 h after Rx): 17 ± 2
- Liver mRNA: HO-1 (HO-1 [9]; 18 h after Rx): 0.82 ± 0.07
- Liver protein: HO-1 protein (HO-1 [9]; 18 h after Rx): 14.9 ± 0.3
- Liver mRNA: IL-10 (IL-10 [10]; 4 h after Rx): 0.67 ± 0.46
- Liver protein: IL-10 (IL-10 [10]; 4 h after Rx): 286 ± 32
- Liver mRNA: IL-10 (IL-10 [10]; 18 h after Rx): 0.06 ± 0.02
- Liver protein: IL-10 (IL-10 [10]; 18 h after Rx): 5988 ± 549
- Protection against glycerol-induced AKI (BUN/creatinine levels) (Male CD-1 mice): modest protection
- Cardiac mRNA: Haptoglobin (haptoglobin [11]; 4 h after Rx): 0.75 ± 0.10
- Cardiac protein: Haptoglobin (haptoglobin [11]; 4 h after Rx): 40.4 ± 8.6
- Cardiac mRNA: Haptoglobin (haptoglobin [11]; 18 h after Rx): 0.53 ± 0.21
- Cardiac protein: Haptoglobin (haptoglobin [11]; 18 h after Rx): 249.6 ± 15.0
